# The supplement of paper PMC10567573
# ± gives the standard deviation.
# Assay: protein stability index of a GFP-peptide fusion (GPS, HEK-293T) (PSI 1-6); higher = more stable
# [1] = treatment: DMSO, c terminus: a fixed tail appended
# [2] = treatment: MLN4924 1 uM, 8 h, c terminus: a fixed tail appended
# 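Further: 24-mer peptide tiles fused after GFP, lentivirally expressed, FACS-sorted into six equal bins by GFP/DsRed ratio, decoded by Illumina sequencing, PSI is the read-weighted mean bin number.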
Sequence,protein stability index [1],protein stability index [2],"protein stability index (treatment: DMSO, c terminus: native)","protein stability index (treatment: MLN4924 1 uM, 8 h, c terminus: native)"
IMNIEPAILVMHHSMKPHPAITAT [INTS3],2.24 ± 0.38,2.22 ± 0.16,,
VERAQQVAVQEQEIARREKELEAR [FLOT1],5.27 ± 0.36,5.3 ± 0.18,,
IKIRPGEFEQFESTIGFKLPNHRA [EPB41L3],2.64 ± 0.03,2.75 ± 0.63,,
VKTRLEQEIATYRRLLEGEDAHLT [KRT17],3.62 ± 0.14,3.77 ± 0.3,,
ESSVPVTPSVPPPASQHSTPAGLP [FBF1],5.04 ± 0.18,5.19 ± 0.17,,
QGGSLPSEEKGHPQEESEESNVSM [CHGB],5.59 ± 0.24,5.53 ± 0.25,,
TPQHHEKQYAMQRPNDDSLAFLDK [IQUB],4.53 ± 0.23,4.58 ± 0.17,,
VEQMTKEERQAAQNECQVLKLLNH [NEK8],4.59 ± 0.18,4.63 ± 0.15,,
PLESIDHSVTGFLCEPDPVHFSEA [ALG2],4.48 ± 0.15,4.48 ± 0.025,,
VNPNGQKQQLVDAFLKLAKQRSVC [FAN1],3.16 ± 0.27,2.92 ± 0.32,,
KRVYEEFTKVVQPQEEIATKKLRL [INTS4],3.31 ± 0.33,3.86 ± 0.36,,
EPQTEHQQESESEIDSVPKTQSEL [MIA2],5.46 ± 0.13,5.59 ± 0.21,,
VASCMHRQETVDCLKKFNARRKLK [CAMK2A],4.05 ± 0.69,4.03 ± 0.26,,
YEENEGAGPYLLNGSYLELSSDRV [ADAMTSL2],3.88 ± 0.33,4.07 ± 0.46,,
SEFHPHHCNLFVYSSSKGSLRLCD [PPP2R2C],2.23 ± 0.16,2.27 ± 0.26,,
LHYGLPVVVKLLHPPSHWPLIKAT [CTNNB1],2.3 ± 0.45,2.46 ± 0.42,,
WLHCVCVVGFDLELGQAVEVIYPQ [DENND6A],2.66 ± 0.95,2.46 ± 0.085,,
PGPHSAKQDSYEQGDSSQQSLKGH [ZC2HC1C],5.24 ± 0.28,5.52 ± 0.082,,
GRNRLYHDGKNQPSKTYPAFLEPD [SPSB1],4.13 ± 0.12,4.37 ± 0.072,,
RRMTVVGRLEGLIQPDDLINQLTF [FAF2],2.36 ± 0.2,2.33 ± 0.49,,
IFSVLNSDDAAAPALETQPQGDEE [SMOC2],5.22 ± 0.23,5.29 ± 0.44,,
YINLLNYMDRFTVAGVLPDIEQFF [SPNS1],2.93 ± 0.63,2.84 ± 0.64,,

Sequence,protein stability index [1],protein stability index [2],"protein stability index (treatment: DMSO, c terminus: native)","protein stability index (treatment: MLN4924 1 uM, 8 h, c terminus: native)"
KIWRTPNGKTIEMDTQFTIRAREL [IQUB],2.55 ± 0.24,2.66 ± 0.19,,
LKNPFFRYTGTTPSPPPGSHYTSP [CARM1],2.9 ± 0.16,3.16 ± 0.25,,
LLGWGYYLIMLPFRFTYYTILDIF [FAF2],4.59 ± 0.36,4.7 ± 0.17,,
GAFPPRGPRPVQSVVPEMEESGAQ [CDK4],5.22 ± 0.32,5.23 ± 0.18,,
LWWDPIQRLLFSGASDNSIIMWDI [WDFY1],2.65 ± 0.54,2.69 ± 0.83,,
EPGPAGPPPPPSPSSLGPLLPLQR [BTBD1],4.75 ± 0.24,4.76 ± 0.52,,
GLSDPGKIKRLRSQVQVSLEDYIN [HNF4A],2.78 ± 0.34,2.93 ± 0.18,,
KGKYNISSEDYRQLELVILQSEPH [KCNK9],2.87 ± 0.28,2.93 ± 0.29,,
WEEEKALWVEERALLEGEKALWED [CCDC70],5.07 ± 0.28,5.22 ± 0.13,,
PQLSPGSGTPQAGTPSPSRSRDSN [RTN2],5.2 ± 0.14,5.27 ± 0.18,,
LPQPLAAHAGAVHNGKIYISGGVH [KLHL14],3.17 ± 0.24,3.27 ± 0.3,,
ASADRTVIVWDGDTTRQVQRISCF [WDR41],2.25 ± 0.27,2.58 ± 0.26,,
PIRNRAFYMEEGVPYCERDYEKMF [PDLIM7],3.3 ± 0.31,3.43 ± 0.34,,
PSDFFIGAVIEVFGHRFIILDTDE [EFHC1],2.32 ± 0.43,2.31 ± 0.36,,
TGNPKSEEPEVPDQEGLQRITGLS [SPNS1],5.35 ± 0.26,5.41 ± 0.16,,
TSDSEGAHVNTLHSGTKRDPKEDV [PHTF1],5.51 ± 0.22,5.54 ± 0.21,,
TLSFNMSDKYPIQDTELPKAEECD [EDARADD],4.55 ± 0.39,4.36 ± 0.31,,
PTPTSLEVSSPPDTTEEVDHKPKL [PDZK1],5.51 ± 0.18,5.54 ± 0.38,,
VGSGGATSGKLLLEADELCDDGGD [ZBTB22],5.56 ± 0.22,5.55 ± 0.22,,
VVGAKKIYAHRVILSACSPYFRAM [KLHL20],2.78 ± 0.26,2.41 ± 0.84,,
PLRVDLILENTSKVPAPKDVLAHQ [NOP53],3.28 ± 0.036,3.5 ± 0.29,,
IIPQVPLFNILAKFNGITEKEYKT [USP39],2.41 ± 0.28,2.49 ± 0.28,,

Sequence,protein stability index [1],protein stability index [2],"protein stability index (treatment: DMSO, c terminus: native)","protein stability index (treatment: MLN4924 1 uM, 8 h, c terminus: native)"
LTVYAWERGSMKTHFNTAQGFRTV [OAS1],2.72 ± 0.57,2.52 ± 0.21,,
LLLCLKVDNHFNLLTTSPVFPHYI [TRIM43],3.03 ± 0.52,3.08 ± 0.64,,
YSLRNKEFKSALCKIVRRTISLL [OR10K2],,,2.96 ± 0.64,2.93 ± 0.21
RKSVPGPGNRTCTGTSKRYQLCRV [ADAMTSL2],2.91 ± 0.41,2.68 ± 0.093,,
PILKVQYHPRDQNKVLVCPMKSAP [RBBP5],2.99 ± 0.17,3.13 ± 0.14,,
NEYLLNLVATNAHLDHYYQEELPA [FCHSD1],3.25 ± 0.11,3.27 ± 0.38,,
REHCPENRERVVSLIEDLQRELEI [ZNF449],3.91 ± 0.21,4 ± 0.28,,
GEAMLANFKPRGYSECIVTVGGEE [GAN],4.38 ± 0.42,4.18 ± 0.41,,
PVPPPSYFATFYSCTPRMNRRMVG [FAM189A2],2.43 ± 0.28,2.43 ± 0.33,,
TENRRLESKIREHLEKKGPQVRDW [KRT18],3.92 ± 0.16,3.95 ± 0.33,,
LNTLTLNVKSEKVYTRHGVPISVT [FLOT1],2.51 ± 0.079,2.61 ± 0.21,,
PPVMPGMPPGLHHQRKYTQSFCGE [ZNF207],3.76 ± 0.15,3.75 ± 0.14,,
TKPVVILPCQHNLCRKCANDIFQA [TRIM63],2.36 ± 0.26,2.55 ± 0.27,,
AELLKKQEELNRKAEELDRREREL [SCAMP3],5.43 ± 0.26,5.44 ± 0.33,,
LLCVNYFFYGETVTDYFFTLVQRE [CDS2],2.9 ± 0.36,3.2 ± 0.41,,
KEEGTVNGASWHTVAGSLNDFSYL [CPXM2],3.35 ± 0.53,3.33 ± 0.34,,
SMPRINHGVLSAEGFLFVFGGQDE [GAN],3.05 ± 0.41,2.88 ± 0.72,,
AFEAARDLDACALVRGHRRRLLRR [ZSWIM9],4.5 ± 0.2,4.45 ± 0.21,,
LEMRRRCTWSIFQSIEYAGQQDQV [PPEF2],1.92 ± 0.52,2.25 ± 0.1,,
HLYPADFRFDKPKKSRSPASAEAP [ZNF511],3.38 ± 0.52,3.83 ± 0.45,,
LMLGKTSISDLSEHVFDLILELYN [PDS5B],2.59 ± 0.33,2.44 ± 0.47,,
